Experimental data: patent US20080154022A1

Biological target: bFGF receptor on BHK-21 (baby hamster kidney derived) cells (hamster)
Assay: displacement of [^125I]-bFGF from BHK-21 cells, radioreceptor assay, IC50 read from the graph

Row | Substance | IC50 [nM]
1 | Complex of bio-bFGF and the OX26/streptavidin conjugate (from UniProt P09038 143-288; P22629 37-163) | 0.56
2 | Biotinylated bFGF (monobiotinylated recombinant human bFGF) (from UniProt P09038 143-288) (ligand) | 0.4
3 | Recombinant human basic fibroblast growth factor (bFGF) (from UniProt P09038 143-288) (ligand) | 0.12
